Experimental data as given in article PMC9907207 (2023).

Target: SARS-CoV-2 RBD (residues 319-541), ancestral strain (SARS-CoV-2, UniProt P0DTC2 319-541)
Assay: BLI

B1: GAR03, human IgG1 monoclonal antibody (antibody, V domains shown)
VH: QVQLVQSGAEVKKPGASVKVSCKASGYTFSSYDINWVRQAPGQGLEWMGWMSPNSGNTGYAQKFQGRVTMTRSTSMSTAYMELSSLRSEDTAVYFCARMSSSLTNYLDYWGQGTLVTVSS
VL: SYVLTQPPSVAVAPGQTARIRCGENDIGSKNVHWYQQKSGQAPVLVVYDDSDRPSGIPERFSGSNSGNTATLTISRVEAGDEADYYCQVWDSTGDHPDVVFGGGTKLTVL
modifications: biotin (EZ-Link NHS-PEG4-Biotin, 10:1) where loaded on the sensor
Kd: 0.31 nM

B2: GAR12, human IgG1 monoclonal antibody (antibody, V domains shown)
VH: EVQLVQSGGGLVQPGGSLRLSCAASGFTFSSYAMSWVRQAPGKGLEWVLSISGSGGSTYYADSVKGRFTISIDNSKKTVYLQMNSLRAEDTAVYYCAKSGEQQLVQAEYFHHWGQGTLVTVSS
VL: DIQMTQSPSTLSASVGDRVTITCRASQSIGRWLAWYQQKPGKAPKLLIYDASSLESGVPSRFSGSGFGTEFTLTISSLQPDDFATYYCQQCDSLLTFGGGTKLEIK
modifications: biotin (EZ-Link NHS-PEG4-Biotin, 10:1) where loaded on the sensor
Kd: 0.2 nM
